Results reported in patent publication US20240209099A1 (SUZHOU TRANSCENTA THERAPEUTICS, published 2024).
Residue numbers refer to the chain shown, from its start. Blank lines part the entries; values can stand above or below the binder they belong to.

Columns and labels:
[1] = molecular target: T1, Recombinant Human VEGFR2/KDR Protein, His tag (hVEGFR2-his) (human, UniProt P35968 20-764); experiment: ELISA, hVEGFR2-his coated
T1 construct: Expressed in HEK293, bought from ACRO Biosystems; also called human VEGFR2-his; Human VEGFR2/KDR-His
Method: Same protocol of Example 2 antibody screening by ELISA assay. Briefly, 0.5 μg/ml hVEGFR2-his was coated and serially diluted purified antibodies would bind to coated antigen. Using HRP conjugated goat anti-mouse Fc antibody could detect binding signals of each antibody.
The hybridoma antibodies have similar affinity to human.

[2] = molecular target: T1, Recombinant Human VEGFR2/KDR Protein, …; experiment: SPR (Biacore), antibody captured by anti-Fc, antigen 2.5-80 nM
Method: A CM5 sensor chip was activated in each flow cell by 7-min injection (10 μl/min) of freshly prepared 1:1 50 mM N-hydroxysuccinimide (NHS): 200 mM 1-ethyl-3-(3-dimethylaminopropyl)-carbodiimide (EDC). Then anti-human Fc antibody (GE Healthcare) in a concentration of 10 μg/ml in 10 mM sodium acetate buffer PH 5.0 was injected onto the activated chip at 10 μl/min (HBS-EP running buffer: 10 mM HEPES, 150 mM NaCl, 3.4 mM EDTA, 0.005% surfactant P20, pH 7.4). The remaining active coupling sites were blocked by 7 min injection of 1M ethanolamine at 10 μl/min. The immobilization level of each flow cell is ˜9000RU. Antibodies were captured in FC2 by anti-human Fc IgG or anti-mouse Fc (GE Healthcare) to 200˜300RU. FC1 was used as the reference cell. Antigen was injected at varying concentrations (2.5 nM, 5 nM, 10 nM, 20 nM, 40 nM and 80 nM) after capture of antibody. The association time for antibody binding antigen is 180s. Surface Regeneration condition is 120s at 10 μl/min in Gly pH1.5. The signals with captured antibody subtracted from those without captured antibody were calculated with Biacore X100 evaluation software ver. 2.0 (Biacore).

[3] = molecular target: T2, human VEGFR2 on HUVEC cells (human, UniProt P35968 20-1356); experiment: flow cytometry on HUVEC cells, percent shifted cells (Shift%), anti-mouse IgG-PE
T2 construct: also called hVEGFR2 on HUVEC
Method: Log phase HUVEC cells were collected, counted and resuspended in FACS buffer (5% BSA+PBS). 2×10∧5 cells were added to each tube and then washed once with PBS (1500 rpm, 5 mins, RT). Then […] serial diluted VEGFR2 antibodies purified from hybridoma supernatant in FACS buffer were added into corresponding tubes and were incubated at 4° C. for 1 hr. The cells were then washed twice with 1 ml PBS, followed by adding 100 μl/tube of 2nd antibody (1:400 anti-mIgG (H+L)-PE, Cell signaling #8887) in FACS buffer. The cells were incubated at 4° C. for 0.5 hr and then washed twice with PBS, followed by resuspending cells in 600 μl PBS for each sample. The cells were then transferred into FACS tube and the bindings of the antibodies to the cells were detected using flow cytometry (BD Accuri C6) (see FIG. 3).
The percentage of positive binding cells was calculated and fit by Graphpad Prism Software.

[4] = molecular target: T1, Recombinant Human VEGFR2/KDR Protein, …; experiment: competition ELISA on coated hVEGFR2-his: hybridoma antibody titrated against 100 ng/ml chimeric 002C, anti-human IgG Fc-HRP
[5] = molecular target: T1, Recombinant Human VEGFR2/KDR Protein, …; experiment: competition ELISA on coated hVEGFR2-his: hybridoma antibody titrated against 100 ng/ml chimeric 054C, anti-human IgG Fc-HRP
[6] = molecular target: T1, Recombinant Human VEGFR2/KDR Protein, …; experiment: competition ELISA: hVEGFR2-his coated (1 ug/ml), antibody titrated, then 0.3 ug/ml hVEGF-A added and bound VEGF-A detected; blocked ligand hVEGF-A
Method: High-binding clear polystyrene 96 well plates were coated with 100 μl/well of 1 μg/ml hVEGFR2-his overnight at 4° C. After washing and blocking, serial diluted antibodies (from 10 μg/ml to 0.0006 μg/ml) were added and incubate for 1 hour at RT. 0.3 μg/ml hVEGF-A (Acrobiosystem, Cat #VE5-H4210) were added and incubated for 2 hour at RT. Then 100 μl/well of 0.25 μg/ml Biotinylated Rabbit Anti-human VEGF-A (Peprotech, Cat #400-P10Bt) was then added for detecting bound VEGF-A. Then 100 μl/well of a solution of HRP conjugated Neutravidin antibody (Pierce, Cat #31001) and TMB were added sequentially. Finally, reaction was terminated using 0.64M H₂SO₄ and plates were read at 450 nm.

human VEGFR1 protein = molecular target: T3, human VEGFR1 protein (human, UniProt P17948 27-756); experiment: ELISA, 1 µg/ml antigen coated, 1 µg/ml antibody
T3 construct: also called Sino Biological 10136-H08H
T3 sequence (P17948 27-756 limits assumed): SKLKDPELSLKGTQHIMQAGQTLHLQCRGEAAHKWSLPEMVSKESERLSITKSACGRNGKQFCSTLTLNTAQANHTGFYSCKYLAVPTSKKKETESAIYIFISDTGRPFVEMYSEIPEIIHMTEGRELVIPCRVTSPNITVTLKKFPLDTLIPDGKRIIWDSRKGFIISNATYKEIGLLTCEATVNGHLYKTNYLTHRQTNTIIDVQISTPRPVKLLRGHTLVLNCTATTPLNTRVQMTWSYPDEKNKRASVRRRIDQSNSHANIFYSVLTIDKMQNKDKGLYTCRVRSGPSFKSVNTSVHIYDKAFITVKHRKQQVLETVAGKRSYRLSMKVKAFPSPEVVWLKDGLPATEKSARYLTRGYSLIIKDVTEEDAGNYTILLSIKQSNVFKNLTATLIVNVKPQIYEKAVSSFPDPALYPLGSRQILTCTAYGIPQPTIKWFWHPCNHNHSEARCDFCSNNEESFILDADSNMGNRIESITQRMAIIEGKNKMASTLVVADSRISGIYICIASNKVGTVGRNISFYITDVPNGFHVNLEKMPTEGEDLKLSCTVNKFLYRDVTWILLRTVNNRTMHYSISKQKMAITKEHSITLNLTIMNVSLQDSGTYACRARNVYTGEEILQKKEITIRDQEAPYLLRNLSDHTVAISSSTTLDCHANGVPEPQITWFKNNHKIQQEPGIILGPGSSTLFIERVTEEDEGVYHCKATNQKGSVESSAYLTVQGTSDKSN
Method: (§1) Briefly, 1 μg/ml human VEGFR1 (Sino Biological, cat #10136-H08H), VEGFR2 (Acrobiosystem, cat #KDR-H5227) and VEGFR3 (Sino Biological, cat #10806-H08H) protein were coated overnight at 4° C. 1 μg/ml humanized antibodies (48-H3L1 and 54-H2L1, produced in CHO cells or Ramucirumab from Eli Lilly Germany, lot #20150819) were added for binding to coated antigen. Secondary antibody HRP conjugated goat anti-human Fc antibody were added for detection of binding signal.

human VEGFR3 protein = molecular target: T4, human VEGFR3 protein (human, UniProt P35916 25-776); experiment: ELISA, 1 µg/ml antigen coated, 1 µg/ml antibody
T4 construct: also called Sino Biological 10806-H08H
T4 sequence (looked up): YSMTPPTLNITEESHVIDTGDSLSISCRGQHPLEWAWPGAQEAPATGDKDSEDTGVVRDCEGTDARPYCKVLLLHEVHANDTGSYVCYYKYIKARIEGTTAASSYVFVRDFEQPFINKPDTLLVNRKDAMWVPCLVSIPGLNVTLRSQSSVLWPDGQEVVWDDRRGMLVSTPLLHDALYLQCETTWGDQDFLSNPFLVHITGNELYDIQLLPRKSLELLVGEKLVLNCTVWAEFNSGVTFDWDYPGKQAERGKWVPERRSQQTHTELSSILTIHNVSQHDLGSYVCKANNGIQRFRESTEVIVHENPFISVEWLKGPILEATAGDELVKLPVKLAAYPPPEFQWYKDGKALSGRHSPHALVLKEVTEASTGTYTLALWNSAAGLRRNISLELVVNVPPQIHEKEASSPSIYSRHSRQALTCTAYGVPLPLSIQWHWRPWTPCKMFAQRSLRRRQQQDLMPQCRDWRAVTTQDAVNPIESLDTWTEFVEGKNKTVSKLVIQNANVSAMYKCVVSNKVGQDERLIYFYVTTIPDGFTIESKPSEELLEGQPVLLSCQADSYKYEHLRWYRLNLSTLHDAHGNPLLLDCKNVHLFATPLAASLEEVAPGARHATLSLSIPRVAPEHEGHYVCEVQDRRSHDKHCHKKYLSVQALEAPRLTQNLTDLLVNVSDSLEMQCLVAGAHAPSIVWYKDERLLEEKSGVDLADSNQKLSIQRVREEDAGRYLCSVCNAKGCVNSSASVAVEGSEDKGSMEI
Method: as §1

[7] = molecular target: T2, human VEGFR2 on HUVEC cells; experiment: flow cytometry on HUVEC cells, MFI, anti-human IgG (H+L)-PE
Method: Same methods with Example 11. Briefly, Log phase HUVEC cells were collected and added to each tube. Then 100 μl/tube serial diluted humanized antibodies in FACS buffer were added and kept at 4° C. for 1 hr. Binding of antibodies to HUVEC was detected by PE signal of the 2nd antibody (anti-hIgG (H+L)-PE), which was added after the 1st antibodies. (see FIG. 15).

[8] = molecular target: T1, Recombinant Human VEGFR2/KDR Protein, …; experiment: ELISA, hVEGFR2-his coated, anti-human Fc-HRP; antibody made in 293T cells
Method: Same protocol of Example 4 except using HRP conjugated goat anti-human Fc antibody as secondary antibody. Binding to hVEGFR2-his and rhesus VEGFR2-his (Acrobiosystems, Cat #VE2-C52H3) were also analyzed head-to-head.
Same protocol of Example 9.

[9] = molecular target: T1, Recombinant Human VEGFR2/KDR Protein, …; experiment: ELISA, human VEGFR2-his coated, anti-human Fc-HRP; antibody made in CHO cells
[10] = molecular target: T5, Recombinant Rhesus macaque VEGFR2/KDR Protein, His tag (rhesus macaque); experiment: ELISA, rhesus VEGFR2-his coated, anti-human Fc-HRP; antibody made in CHO cells
T5 construct: Expressed in HEK293, bought from ACRO Biosystems; also called rhesus VEGFR2-his; rhesus VEGFR2
T5 chain: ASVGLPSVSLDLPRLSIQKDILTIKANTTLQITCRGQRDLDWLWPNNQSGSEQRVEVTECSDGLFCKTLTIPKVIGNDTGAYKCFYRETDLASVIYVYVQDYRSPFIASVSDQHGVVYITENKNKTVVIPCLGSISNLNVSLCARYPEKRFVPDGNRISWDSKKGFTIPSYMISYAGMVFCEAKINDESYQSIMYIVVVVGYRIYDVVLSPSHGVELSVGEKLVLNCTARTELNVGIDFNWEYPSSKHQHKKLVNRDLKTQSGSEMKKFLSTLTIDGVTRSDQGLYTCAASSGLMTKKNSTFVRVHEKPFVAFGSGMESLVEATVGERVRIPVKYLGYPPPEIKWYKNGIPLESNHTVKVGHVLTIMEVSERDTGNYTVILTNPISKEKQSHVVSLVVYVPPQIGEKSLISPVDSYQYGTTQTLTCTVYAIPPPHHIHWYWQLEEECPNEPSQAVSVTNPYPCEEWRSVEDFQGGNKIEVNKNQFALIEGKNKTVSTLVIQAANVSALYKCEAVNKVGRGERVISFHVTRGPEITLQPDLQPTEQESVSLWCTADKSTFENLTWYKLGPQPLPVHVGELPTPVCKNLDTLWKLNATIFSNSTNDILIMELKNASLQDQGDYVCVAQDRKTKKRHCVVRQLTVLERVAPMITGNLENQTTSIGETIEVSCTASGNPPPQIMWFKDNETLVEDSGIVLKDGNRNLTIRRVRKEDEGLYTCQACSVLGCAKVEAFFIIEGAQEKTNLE

[11] = molecular target: T1, Recombinant Human VEGFR2/KDR Protein, …; experiment: competition ELISA: VEGF-A coated (0.25 ug/ml), antibody titrated together with 1 ug/ml human VEGFR2, detection with mouse anti-VEGFR2 serum and anti-mouse Fc-HRP; blocked ligand VEGF-A
Method: (§2) For this assay, 0.25 μg/ml VEGF-A was coated on ELISA plate before a mixture of chimeric antibodies and VEGFR2 were added. To detect free VEGF-A (not bind to VEGFR2), 1:1000 diluted mouse serum (mouse previous immunized with human VEGFR2) were added and HRP conjugated goat anti-mouse Fc antibody was used as secondary antibody.
(§3) Same protocol of Example 10. Briefly, 0.25 μg/ml VEGF-A was coated overnight at 4° C. After blocking, serial diluted 54-H2L1, 48-H3L1, Ramucirumab and 1 μg/ml human VEGFR2 or rhesus VEGFR2 were added at the same time for 2 hour-incubation. After wash, mouse serum containing polyclone VEGFR2 antibody and HRP conjugated goat anti-mouse Fc antibody were added for detection of free VEGF-A coated on the plates (see FIGS. 13A and 13B).

[12] = molecular target: T5, Recombinant Rhesus macaque VEGFR2/KDR …; experiment: competition ELISA: VEGF-A coated (0.25 ug/ml), antibody titrated together with 1 ug/ml rhesus VEGFR2, detection with mouse anti-VEGFR2 serum and anti-mouse Fc-HRP; blocked ligand VEGF-A
Method: as §2, §3

EC50 [1]: 0.0232 µg/mL
Kd [2]: < 1 pM
koff [2]: < 1e-07 s⁻¹
kon [2]: 1.14e+06 M⁻¹ s⁻¹
EC50 [3]: 0.024 µg/mL
IC50 (read off the curve) [4]: ~0.07 µg/mL
IC50 (read off the curve) [5]: ~0.2 µg/mL
IC50 [6]: 0.0416 µg/mL
B1: 048 (mouse hybridoma antibody) (antibody, V domains shown)
VH: EVQLVESGGDLVKPGGSLKLSCAASGFTFSMYGMSWVRQTPDKRLEWVASISIGGSYTYYADSVEGRFTISRENAKNTLFLQMNSLKSEDTALYYCAREMDGNYDYWGHGTTLTVSS
VL: DVMITQDELSNPVTFGESVSISCRSSKSLLYKDGKTYLNWFLQRPGQSPQLLIYLMSTRASGVSDRFSGSGSGTDFTLEISRVKAEDVGIYYCQQLVEYPFTFGSGTKLEIK
notes: Mouse antibody purified from hybridoma; also called mAb048; 5G4

binding result (human VEGFR1 protein): no binding (tested: 1 µg/ml)
binding result (human VEGFR3 protein): no binding (tested: 1 µg/ml)
EC50 (read off the curve) [7]: ~0.2 µg/mL
EC50 [8]: 0.0205 µg/mL
EC50 [9]: 0.00899 µg/mL
EC50 [10]: 0.00864 µg/mL
IC50 [11]: 0.727 µg/mL
IC50 [12]: 0.833 µg/mL
B2: 48-H3L1 (humanized Mab48) (antibody, human IgG1, V domains shown)
VH: B1 VH with D10G, K19R, T40A, D42G, E65K, E73D, F80Y, K87R, S88A, L93V
VL: B1 VL with V2I, M3V, N11L, E79K, K84E
notes: also called 48-H3L1 (CHO)
